Source: patent US6946258B2, “Rapid, immunochemical process for measuring thiopurine methyltransferase” (Biologix Diagnostics, LLC, priority 2002, dated 2005)
Numbering of substitutions follows the chain as printed.

Columns and labels:
[1] = molecular target: T1, human TPMT (Homo sapiens, UniProt P51580); conditions: Deininger et al., 1994, Table 1; cited from earlier work
T1 sequence (P51580 1-245): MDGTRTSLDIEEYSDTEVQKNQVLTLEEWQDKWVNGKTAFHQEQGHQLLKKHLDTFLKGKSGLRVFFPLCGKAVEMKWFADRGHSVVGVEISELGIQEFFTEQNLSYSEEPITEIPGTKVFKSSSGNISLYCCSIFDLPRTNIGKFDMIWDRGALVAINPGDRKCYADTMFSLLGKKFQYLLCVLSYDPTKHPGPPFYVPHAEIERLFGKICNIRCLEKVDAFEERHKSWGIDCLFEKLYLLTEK

[2] = molecular target: T2, hTPMT enzyme (Homo sapiens, UniProt P51580, Y240C); experiment: ELISA immunoassay for TPMT using purified anti-6-MMP IgG; assay type: biochemical; conditions: TPMT + 100 μM SAM, 37° C., 30 minutes
T2 construct: DNA fragment; first 13 codons of LacZ (vector-encoded leader of pGEM-3Zf(+)) (N); made in house; host or cells: E. coli JM109 (pTPMT)
T2 sequence (P51580 1-245 Y240C): T1 sequence (P51580 1-245) with Y240C
Description: In order to determine whether TPMT enzyme could methylate 6-MP bound to BSA in reaction wells of a plastic ELISA plate, and if the anti-6-MMP antibody could detect the methylated 6-MMP reaction product, the following assay format was developed: [drawing 3] Schematic Representation of ELISA Assay for TPMT. Substrate BSA-6-mercaptopurine conjugate is coated onto the wells of plastic ELISA plates. In the presence of S-Adenosylmethionine (SAM), TPMT catalyses S-methylation of 6-MP to 6-methylmercaptopurine (6-MMP). Rabbit anti-6-MMP IgG binds to the covalently bound 6-MMP reaction product; and Protein A-Horseradish peroxidase (HRP) conjugate then binds to the rabbit IgG. Blue color develops in the presence of the HRP substrate, Tetramethylbenzidine. After acidification, the color changes to yellow; and the optical density at 450 nm is directly proportional to the amount of 6-MMP produced by enzyme-catalyzed TPMT methylation.
The wells of ‘Immulon B’ ELISA strips were coated with various concentrations of BSA-6MP conjugate and blocked as described above. After blocking solution was removed, the wells received 100 μl of Methylation Reaction Mix consisting of 1 mM Potassium Phosphate, 30 mM Tris-HCl, pH 8.0, lmM EDTA, 100 μM SAM and 1-4 μl of TPMT enzyme (˜6 units/μl). As a control, the wells received 100 μl of same reaction mix except no Mtase enzyme.
The wells were incubated at 37° C. for 30 minutes and were developed as described before. Absorbance was read on an Opsys MR ELISA plate reader (Dynex) at 450 nm. In this ELISA assay format, TPMT enzyme activity is detected as the amount of 6-MMP formed in situ: substrate 6-mercaptopurine is covalently bound to BSA which coats the wells of the plastic ELISA plate. Since anti-6-MMP IgG binds specifically to the methylated reaction product, 6-MMP, it is possible to measure TPMT activity using horseradish peroxidase (HRP) labeled Protein A (or HRP-conjugated goat anti-rabbit IgG). […]

[3] = molecular target: T2, hTPMT enzyme; experiment: Temperature optimum of recombinant TPMT; assay type: biochemical
Protocol: Thawed cells (˜15g) were sonicated in (20 mM Tris-Cl, pH 7.5, 1 mM EDTA, 50 mM KC1, 10 mM β-mercaptoethanol) and centrifuged (8000 g for 15 minutes). The supernatant was loaded onto a Q-Sepharose column (Pharmacia, Piscataway, N.J.). […] After a storage of 2 and 5 months at −20° C., no change in TPMT enzyme activity was observed.

[4] = Storage stability of recombinant TPMT; assay type: physicochemical; conditions: storage of 2 and 5 months at −20° C.
Protocol: The optimal reaction temperature for the hTPMT enzyme is 37° C. […] The relatively high activity of TPMT at ambient temperature facilitates immunoassays using anti-6-MMP antibody. After a storage of 2 and 5 months at −20° C., no change in TPMT enzyme activity was observed.

Molecule: OC[C@H]1O[C@@H](n2cnc3c(S)ncnc32)[C@H](O)[C@@H]1O [6-mercaptopurine riboside]
- substrate quality for human TPMT [1]: relatively good substrate

Molecule: BSA:6-MP: 6-MP (TPMT substrate) linked to BSA by periodate oxidation chemistry; coated onto ELISA wells
- Absorbance at 450 nm ([2]; wells coated with BSA:6-MP 10 μg/ml): 2.228
- Absorbance at 450 nm ([2]; wells coated with BSA:6-MP 100 μg/ml): 2.440
- Absorbance at 450 nm ([2]; wells coated with BSA:6-MP 1 mg/ml): 2.561

B1: hTPMT enzyme: Recombinant human thiopurine methyltransferase expressed in E.coli JM109 (pTPMT), partially purified (protein, UniProt P51580 1-245, looked up)
Thiopurine S-methyltransferase: T1 sequence (P51580 1-245)
modifications: recombinant, E. coli
notes: Recombinant human thiopurine methyltransferase expressed in E.coli JM109 (pTPMT), partially purified
- optimal reaction temperature [3]: 37 °C
- enzyme activity at 23° C. relative to the optimum ([3]; 23° C.): nearly as active
- change in TPMT enzyme activity after storage [4]: no change
